{"source": "paper PMC10641520", "about": "(The Journal of Biological Chemistry, 2023)", "key": {"AUC [1]": {"biological_target": "the molecule itself", "experiment": "AUC"}, "AUC [2]": {"biological_target": "the molecule itself", "experiment": "AUC", "remark": "listed apart in the source"}}, "data": [{"protein": "Acinetobacter baumannii TIR domain protein (AbTir-TIR^wt, aa134-269) (domain or fragment, UniProt A0A009IHW8 134-269, looked up) EYDLFISHASEDKEDFVRPLAETLQQLGVNVWYDEFTLKVGDSLRQKIDSGLRNSKYGTVVLSTDFIKKDWTNYELDGLVAREMNGHKMILPIWHKITKNDVLDYSPNLADKVALNTSVNSIEEIAHQLADVILNR", "values": [{"measurement": "stoichiometry N", "setting": "AUC [1]", "value": 2}, {"measurement": "Kd", "setting": "AUC [2]", "value": 1400, "unit": "nM"}]}]}
